The target of the experiment is Activated human plasma kallikrein (Enzyme Research Laboratories) (human, UniProt P03952 20-638). As to the kind of experiment: cell-based or functional assay.
Chain of Activated human plasma kallikrein (Enzyme Research Laboratories) (P03952 20-638 limits assumed): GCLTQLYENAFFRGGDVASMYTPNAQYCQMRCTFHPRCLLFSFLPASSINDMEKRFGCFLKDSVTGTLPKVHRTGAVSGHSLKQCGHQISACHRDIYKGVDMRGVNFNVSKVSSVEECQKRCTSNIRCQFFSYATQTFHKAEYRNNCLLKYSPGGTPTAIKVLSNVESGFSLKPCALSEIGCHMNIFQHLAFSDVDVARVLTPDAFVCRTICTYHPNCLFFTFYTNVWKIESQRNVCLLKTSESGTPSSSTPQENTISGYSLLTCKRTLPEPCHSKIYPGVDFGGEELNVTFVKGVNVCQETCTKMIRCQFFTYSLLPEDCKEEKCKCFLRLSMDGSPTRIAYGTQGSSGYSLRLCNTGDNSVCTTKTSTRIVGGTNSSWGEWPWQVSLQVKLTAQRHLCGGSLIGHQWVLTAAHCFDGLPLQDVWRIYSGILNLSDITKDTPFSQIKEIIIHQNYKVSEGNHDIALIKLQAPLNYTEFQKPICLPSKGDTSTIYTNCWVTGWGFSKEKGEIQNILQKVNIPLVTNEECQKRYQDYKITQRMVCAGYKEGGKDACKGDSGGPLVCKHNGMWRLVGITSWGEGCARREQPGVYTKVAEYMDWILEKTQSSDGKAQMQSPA

B1: Lanadelumab (full length anti-pKal antibody) (antibody, IgG1, V domains shown)
VH: EVQLLESGGGLVQPGGSLRLSCAASGFTFSHYIMMWVRQAPGKGLEWVSGIYSSGGITVYADSVKGRFTISRDNSKNTLYLQMNSLRAEDTAVYYCAYRRIGVPRRDEFDIWGQGTMVTVSS
VL: DIQMTQSPSTLSASVGDRVTITCRASQSISSWLAWYQQKPGKAPKLLIYKASTLESGVPSRFSGSGSGTEFTLTISSLQPDDFATYYCQQYNTYWTFGQGTKVEIK
Regarding B1, the “IC50 (read off the curve), 6.25 nM pKal” value is roughly 2 nM and the “IC50 (read off the curve), 12.5 nM pKal” value is roughly 4 nM.

Source of the values: patent US20250326861A1 (REGENXBIO, published 2025).
